Assay results from JP2016528193A.

Experiments:
ヒトPCSK9(野生型) (human) = assay: Biacore at pH 6.0 (HBS-P with 0.01 % BSA), fitted from competition curves, n=1
ヒトD374Y PCSK9 (human) [1] = assay: cell-based or functional assay
ヒトD374Y PCSK9 (human) [2] = assay: competition ELISA: block of biotinylated D374Y PCSK9 (20 ng/mL) binding to captured LDLR

Row | Substance | Kd (ヒトPCSK9(野生型) (human)) [nM] | 細胞LDL取り込みアッセイ(HepG2、LDL-BODIPY)のIC50 (ヒトD374Y PCSK9 (human) [1]) [nM] | IC50 (ヒトD374Y PCSK9 (human) [2]) [nM]
1 | 21B12 (antibody) | 0.0073 |  | 
2 | 21B12 IgG2 (antibody) |  | 13.3 | 0.17
3 | 21B12 IgG4 (antibody) |  | 18 | 0.169
4 | 31H4 IgG2 (antibody) |  | 16.7 | 0.199
5 | 31H4 IgG4 (antibody) |  | 13.3 | 0.156
